Laboratory results reported in patent US20120045438A1 (Janssen / Centocor, published 2012).

Key:
[1] = molecular target: T1, human IL-13 R130Q variant (R110Q of the mature chain) (human, UniProt P35225 35-146, Biotinylated on amines (NHS-LC-biotin, 4:1) in ELISA, panning and competition assays. The letters are unchanged.); test: competition ELISA, biotinylated IL-13 R130Q binding to plate-bound IL-13Ra2, crude supernatant
T1 construct: R130Q counts from Met 1 of the signal peptide, R110Q on the mature chain; Bought from Peprotech; also called IL-13 R110Q; b-R130Q

[2] = molecular target: T1, human IL-13 R130Q variant (R110Q of the …); test: direct binding ELISA, mAb captured by anti-human Fc, biotinylated IL-13 R130Q, crude supernatant;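 note: 100% is the positive control mAb signal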
[3] = molecular target: T1, human IL-13 R130Q variant (R110Q of the …); test: single-point (10 nM) phage Fab ELISA on biotinylated IL-13 R130Q

Binder | Percent Inhibition IL-13 R130Q (333 ng/ml) to Ra2 [1] [%] | Percent IL-13 R130Q (30 ng/ml) Binding [2] [%] | Signal (% of Lc16Hc7) [3] [%]
Lc4Hc2 (antibody, V domains shown) VH: QVTLKESGPVLVKPTETLTLTCTVSGFSLSTYGMGVGWIRQPPGKALEWLAHIWWDDVKRYNPALKSRLTISKDTSKSQVVLTMTNMDPVDTATYYCARMGSDYDVWFDYWGQGTLVTVSS VL: DIQMTQSPSSLSASVGDRVTITCRASKSISKYLAWYQQKPGKAPKRLIYSGSTLQSGVPSRFSGSGSGTEFTLTISSLQPEDFATYYCQQHNEYPYTFGGGTKVEIK | 55 | 84.7 | –
Fab clone 4F07 (IL-13-62 library) (Fab, V domains shown, Fab on phage pIX) VH: QVTLKESGPVLVKPTETLTLTCTVSGFSLSTYGMGVGWIRQPPGKALEWLAHIWWDDVKRYNPALKSRLTISKDTSKSQVVLTMTNMDPVDTATYYCARMGSDYDVWFDYWGQGTLVTVSS VL: EIVLTQSPATLSLSPGERATLSCRASKSISKYLAWYQQKPGQAPRLLIYSGSTLQSGIPARFSGSGSGTDFTLTISSLEPEDFAVYYCQQPIDAPYTFGQGTKLEIK | – | – | 116
Fab clone 3C01 (IL-13-62 library) (Fab, V domains shown, Fab on phage pIX) VH: QVTLKESGPVLVKPTETLTLTCTVSGFSLSTYGMGVGWIRQPPGKALEWLAHIWWDDVKRYNPALKSRLTISKDTSKSQVVLTMTNMDPVDTATYYCARMGSDYDVWFDYWGQGTLVTVSS VL: EIVLTQSPATLSLSPGERATLSCRASKSISKYLAWYQQKPGQAPRLLIYSGSTLQSGIPARFSGSGSGTDFTLTISSLEPEDFAVYYCQQHNFGPYTFGQGTKLEIK | – | – | 124
Fab clone 3G05 (IL-13-62 library) (Fab, V domains shown, Fab on phage pIX) VH: QVTLKESGPVLVKPTETLTLTCTVSGFSLSTYGMGVGWIRQPPGKALEWLAHIWWDDVKRYNPALKSRLTISKDTSKSQVVLTMTNMDPVDTATYYCARMGSDYDVWFDYWGQGTLVTVSS VL: EIVLTQSPATLSLSPGERATLSCRASKSISKYLAWYQQKPGQAPRLLIYSGSTLQSGIPARFSGSGSGTDFTLTISSLEPEDFAVYYCQQPLDSPYTFGQGTKLEIK | – | – | 108
Fab clone 2D09 (IL-13-62 library) (Fab, V domains shown, Fab on phage pIX) VH: QVTLKESGPVLVKPTETLTLTCTVSGFSLSTYGMGVGWIRQPPGKALEWLAHIWWDDVKRYNPALKSRLTISKDTSKSQVVLTMTNMDPVDTATYYCARMGSDYDVWFDYWGQGTLVTVSS VL: EIVLTQSPATLSLSPGERATLSCRASKSISKYLAWYQQKPGQAPRLLIYSGSTLQSGIPARFSGSGSGTDFTLTISSLEPEDFAVYYCQQHNVGPYTFGQGTKLEIK | – | – | 108
Fab clone 1H06 (IL-13-62 library) (Fab, V domains shown, Fab on phage pIX) VH: QVTLKESGPVLVKPTETLTLTCTVSGFSLSTYGMGVGWIRQPPGKALEWLAHIWWDDVKRYNPALKSRLTISKDTSKSQVVLTMTNMDPVDTATYYCARMGSDYDVWFDYWGQGTLVTVSS VL: EIVLTQSPATLSLSPGERATLSCRASKSISKYLAWYQQKPGQAPRLLIYSGSTLQSGIPARFSGSGSGTDFTLTISSLEPEDFAVYYCQQHDWAPYTFGQGTKLEIK | – | – | 139
Lc5Hc2 (antibody, V domains shown) VH: QVTLKESGPVLVKPTETLTLTCTVSGFSLSTYGMGVGWIRQPPGKALEWLAHIWWDDVKRYNPALKSRLTISKDTSKSQVVLTMTNMDPVDTATYYCARMGSDYDVWFDYWGQGTLVTVSS VL: DIQLTQSPSFLSASVGDRVTITCRASKSISKYLAWYQQKPGKAPKLLIYSGSTLQSGVPSRFSGSGSGTEFTLTISSLQPEDFATYYCQQHNEYPYTFGQGTKVEIK | 57 | 85.9 | –
Fab clone 4B10 (IL-13-62 library) (Fab, V domains shown, Fab on phage pIX) VH: QVTLKESGPVLVKPTETLTLTCTVSGFSLSTYGMGVGWIRQPPGKALEWLAHIWWDDVKRYNPALKSRLTISKDTSKSQVVLTMTNMDPVDTATYYCARMGSDYDVWFDYWGQGTLVTVSS VL: EIVLTQSPATLSLSPGERATLSCRASKSISKYLAWYQQKPGQAPRLLIYSGSTLQSGIPARFSGSGSGTDFTLTISSLEPEDFAVYYCQQHFWGPYTFGQGTKLEIK | – | – | 117
Fab clone 3G01 (IL-13-62 library) (Fab, V domains shown, Fab on phage pIX) VH: QVTLKESGPVLVKPTETLTLTCTVSGFSLSTYGMGVGWIRQPPGKALEWLAHIWWDDVKRYNPALKSRLTISKDTSKSQVVLTMTNMDPVDTATYYCARMGSDYDVWFDYWGQGTLVTVSS VL: EIVLTQSPATLSLSPGERATLSCRASKSISKYLAWYQQKPGQAPRLLIYSGSTLQSGIPARFSGSGSGTDFTLTISSLEPEDFAVYYCQQQDLGPYTFGQGTKLEIK | – | – | 122
Fab clone 3H12 (IL-13-62 library) (Fab, V domains shown, Fab on phage pIX) VH: QVTLKESGPVLVKPTETLTLTCTVSGFSLSTYGMGVGWIRQPPGKALEWLAHIWWDDVKRYNPALKSRLTISKDTSKSQVVLTMTNMDPVDTATYYCARMGSDYDVWFDYWGQGTLVTVSS VL: EIVLTQSPATLSLSPGERATLSCRASKSISKYLAWYQQKPGQAPRLLIYSGSTLQSGIPARFSGSGSGTDFTLTISSLEPEDFAVYYCQQHDSGPYTFGQGTKLEIK | – | – | 120
Fab clone 2E07 (IL-13-62 library) (Fab, V domains shown, Fab on phage pIX) VH: QVTLKESGPVLVKPTETLTLTCTVSGFSLSTYGMGVGWIRQPPGKALEWLAHIWWDDVKRYNPALKSRLTISKDTSKSQVVLTMTNMDPVDTATYYCARMGSDYDVWFDYWGQGTLVTVSS VL: EIVLTQSPATLSLSPGERATLSCRASKSISKYLAWYQQKPGQAPRLLIYSGSTLQSGIPARFSGSGSGTDFTLTISSLEPEDFAVYYCQQPLEAPYTFGQGTKLEIK | – | – | 104
Fab clone 2A11 (IL-13-62 library) (Fab, V domains shown, Fab on phage pIX) VH: QVTLKESGPVLVKPTETLTLTCTVSGFSLSTYGMGVGWIRQPPGKALEWLAHIWWDDVKRYNPALKSRLTISKDTSKSQVVLTMTNMDPVDTATYYCARMGSDYDVWFDYWGQGTLVTVSS VL: EIVLTQSPATLSLSPGERATLSCRASKSISKYLAWYQQKPGQAPRLLIYSGSTLQSGIPARFSGSGSGTDFTLTISSLEPEDFAVYYCQQHSHGPYTFGQGTKLEIK | – | – | 132
Fab clone 3F08 (IL-13-62 library) (Fab, V domains shown, Fab on phage pIX) VH: QVTLKESGPVLVKPTETLTLTCTVSGFSLSTYGMGVGWIRQPPGKALEWLAHIWWDDVKRYNPALKSRLTISKDTSKSQVVLTMTNMDPVDTATYYCARMGSDYDVWFDYWGQGTLVTVSS VL: EIVLTQSPATLSLSPGERATLSCRASKSISKYLAWYQQKPGQAPRLLIYSGSTLQSGIPARFSGSGSGTDFTLTISSLEPEDFAVYYCQQHLMGPYTFGQGTKLEIK | – | – | 111
Fab clone 3D11 (IL-13-62 library) (Fab, V domains shown, Fab on phage pIX) VH: QVTLKESGPVLVKPTETLTLTCTVSGFSLSTYGMGVGWIRQPPGKALEWLAHIWWDDVKRYNPALKSRLTISKDTSKSQVVLTMTNMDPVDTATYYCARMGSDYDVWFDYWGQGTLVTVSS VL: EIVLTQSPATLSLSPGERATLSCRASKSISKYLAWYQQKPGQAPRLLIYSGSTLQSGIPARFSGSGSGTDFTLTISSLEPEDFAVYYCQQHLNGPYTFGQGTKLEIK | – | – | 136
Fab clone 3A10 (IL-13-62 library) (Fab, V domains shown, Fab on phage pIX) VH: QVTLKESGPVLVKPTETLTLTCTVSGFSLSTYGMGVGWIRQPPGKALEWLAHIWWDDVKRYNPALKSRLTISKDTSKSQVVLTMTNMDPVDTATYYCARMGSDYDVWFDYWGQGTLVTVSS VL: EIVLTQSPATLSLSPGERATLSCRASKSISKYLAWYQQKPGQAPRLLIYSGSTLQSGIPARFSGSGSGTDFTLTISSLEPEDFAVYYCQQHVWGPYTFGQGTKLEIK | – | – | 160
Fab clone 1H12 (IL-13-62 library) (Fab, V domains shown, Fab on phage pIX) VH: QVTLKESGPVLVKPTETLTLTCTVSGFSLSTYGMGVGWIRQPPGKALEWLAHIWWDDVKRYNPALKSRLTISKDTSKSQVVLTMTNMDPVDTATYYCARMGSDYDVWFDYWGQGTLVTVSS VL: EIVLTQSPATLSLSPGERATLSCRASKSISKYLAWYQQKPGQAPRLLIYSGSTLQSGIPARFSGSGSGTDFTLTISSLEPEDFAVYYCQQHDLGPYTFGQGTKLEIK | – | – | 111
Fab clone 3E03 (IL-13-62 library) (Fab, V domains shown, Fab on phage pIX) VH: QVTLKESGPVLVKPTETLTLTCTVSGFSLSTYGMGVGWIRQPPGKALEWLAHIWWDDVKRYNPALKSRLTISKDTSKSQVVLTMTNMDPVDTATYYCARMGSDYDVWFDYWGQGTLVTVSS VL: EIVLTQSPATLSLSPGERATLSCRASKSISKYLAWYQQKPGQAPRLLIYSGSTLQSGIPARFSGSGSGTDFTLTISSLEPEDFAVYYCQQHSIGPYTFGQGTKLEIK | – | – | 122
Fab clone 2G06 (IL-13-62 library) (Fab, V domains shown, Fab on phage pIX) VH: QVTLKESGPVLVKPTETLTLTCTVSGFSLSTYGMGVGWIRQPPGKALEWLAHIWWDDVKRYNPALKSRLTISKDTSKSQVVLTMTNMDPVDTATYYCARMGSDYDVWFDYWGQGTLVTVSS VL: EIVLTQSPATLSLSPGERATLSCRASKSISKYLAWYQQKPGQAPRLLIYSGSTLQGGIPARFSGSGSGTDFTLTISSLEPEDFAVYYCQQHLDSPYTFGQGTKLEIK | – | – | 112
Fab clone 4D01 (IL-13-62 library) (Fab, V domains shown, Fab on phage pIX) VH: QVTLKESGPVLVKPTETLTLTCTVSGFSLSTYGMGVGWIRQPPGKALEWLAHIWWDDVKRYNPALKSRLTISKDTSKSQVVLTMTNMDPVDTATYYCARMGSDYDVWFDYWGQGTLVTVSS VL: EIVLTQSPATLSLSPGERATLSCRASKSISKYLAWYQQKPGQAPRLLIYSGSTLQSGIPARFSGSGSGTDFTLTISSLEPEDFAVYYCQQPLDVPYTFGQGTKLEIK | – | – | 140
Fab clone 2A07 (IL-13-62 library) (Fab, V domains shown, Fab on phage pIX) VH: QVTLKESGPVLVKPTETLTLTCTVSGFSLSTYGMGVGWIRQPPGKALEWLAHIWWDDVKRYNPALKSRLTISKDTSKSQVVLTMTNMDPVDTATYYCARMGSDYDVWFDYWGQGTLVTVSS VL: EIVLTQSPATLSLSPGERATLSCRASKSISKYLAWYQQKPGQAPRLLIYSGSTLQSGIPARFSGSGSGTDFTLTISSLEPEDFAVYYCQQHDPGPYTFGQGTKLEIK | – | – | 136
